Source: patent publication US20240132591A1
Where two headings read alike, the source gives them in different places.

Legend:
Experiment in all cases: ELISA on insulin-coated plate, 100 nM
Insulin [1] = molecular target: Insulin (UniProt P01308)
Insulin [2] = molecular target: Insulin (UniProt P01308); remark: listed apart in the source
Insulin [3] = molecular target: Insulin (UniProt P01308); remark: listed apart in the source
Insulin [4] = molecular target: Insulin (UniProt P01308); remark: listed apart in the source
Insulin [5] = molecular target: Insulin (UniProt P01308); remark: listed apart in the source
Insulin [6] = molecular target: Insulin (UniProt P01308); remark: listed apart in the source

| Insulin polyreactivity score (Insulin [1]) | Insulin polyreactivity score (Insulin [2]) | Insulin polyreactivity score (Insulin [3]) | Insulin polyreactivity score (Insulin [4]) | Insulin polyreactivity score (Insulin [5]) | Insulin polyreactivity score (Insulin [6]) | Substance |
| --- | --- | --- | --- | --- | --- | --- |
| 1 | 1.01 | 1.25 | 3.43 | 1.09 | – | Elotuzumab (antibody) |
| 1.52 | 7.87 | 21.3 | 69.2 | 7.93 | 69.2 | Lenzilumab (antibody) |
